Experimental data: US11242370B2, “Neuregulin-4 compounds and methods of use” (Eli Lilly and Company, priority 2019, dated 2022)
Marks after values point to notes of the source that are not given here.

Tests used:
[1] = molecular target: T1, rat HER2/HER4 (Rattus norvegicus, UniProt Q62956); test: Rat HER2/HER4 phospho-ERK 1/2 assay, purified proteins, CHO-K1 cells; format: cell-based; details: for % Maximal NRG1 activity: maximal signal relative to native human NRG1 per plate; for EC50: purified proteins, phospho-ERK1/2
T1 construct: expressed in transfected cells
T1 sequence (Q62956 26-1308): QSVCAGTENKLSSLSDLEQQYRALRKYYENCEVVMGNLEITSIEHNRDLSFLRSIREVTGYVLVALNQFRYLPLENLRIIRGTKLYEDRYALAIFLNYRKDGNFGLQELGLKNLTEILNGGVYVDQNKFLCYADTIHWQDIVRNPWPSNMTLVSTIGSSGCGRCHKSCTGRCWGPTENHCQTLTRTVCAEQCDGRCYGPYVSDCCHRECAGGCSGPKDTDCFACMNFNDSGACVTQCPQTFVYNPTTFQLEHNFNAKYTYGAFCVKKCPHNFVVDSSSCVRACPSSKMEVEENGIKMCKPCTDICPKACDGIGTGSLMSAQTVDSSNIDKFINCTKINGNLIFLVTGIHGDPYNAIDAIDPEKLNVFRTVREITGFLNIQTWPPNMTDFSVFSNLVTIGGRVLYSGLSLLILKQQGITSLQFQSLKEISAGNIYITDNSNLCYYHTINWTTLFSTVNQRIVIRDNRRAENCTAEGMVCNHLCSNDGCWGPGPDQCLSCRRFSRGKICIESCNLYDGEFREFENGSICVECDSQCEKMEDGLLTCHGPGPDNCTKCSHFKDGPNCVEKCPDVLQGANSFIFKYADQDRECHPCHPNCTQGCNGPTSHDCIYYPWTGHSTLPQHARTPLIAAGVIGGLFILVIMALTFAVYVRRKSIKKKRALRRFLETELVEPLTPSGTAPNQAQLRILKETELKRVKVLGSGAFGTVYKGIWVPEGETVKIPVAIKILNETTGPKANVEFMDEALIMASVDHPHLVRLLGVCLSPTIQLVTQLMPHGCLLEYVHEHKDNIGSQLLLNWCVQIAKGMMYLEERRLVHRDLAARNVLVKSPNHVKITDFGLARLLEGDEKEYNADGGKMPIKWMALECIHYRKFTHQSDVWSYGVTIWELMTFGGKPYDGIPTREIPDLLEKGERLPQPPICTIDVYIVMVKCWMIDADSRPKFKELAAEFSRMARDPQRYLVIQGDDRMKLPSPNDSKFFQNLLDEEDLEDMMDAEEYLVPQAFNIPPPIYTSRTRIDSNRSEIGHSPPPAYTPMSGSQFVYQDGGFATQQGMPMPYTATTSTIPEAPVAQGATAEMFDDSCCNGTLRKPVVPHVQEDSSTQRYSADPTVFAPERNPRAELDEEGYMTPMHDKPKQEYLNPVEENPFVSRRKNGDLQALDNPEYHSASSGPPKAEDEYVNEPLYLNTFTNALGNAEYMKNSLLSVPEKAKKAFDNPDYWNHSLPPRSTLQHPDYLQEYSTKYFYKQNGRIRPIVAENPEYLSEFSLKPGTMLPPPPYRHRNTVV
T1 sequence (P06494 23-1257 partner): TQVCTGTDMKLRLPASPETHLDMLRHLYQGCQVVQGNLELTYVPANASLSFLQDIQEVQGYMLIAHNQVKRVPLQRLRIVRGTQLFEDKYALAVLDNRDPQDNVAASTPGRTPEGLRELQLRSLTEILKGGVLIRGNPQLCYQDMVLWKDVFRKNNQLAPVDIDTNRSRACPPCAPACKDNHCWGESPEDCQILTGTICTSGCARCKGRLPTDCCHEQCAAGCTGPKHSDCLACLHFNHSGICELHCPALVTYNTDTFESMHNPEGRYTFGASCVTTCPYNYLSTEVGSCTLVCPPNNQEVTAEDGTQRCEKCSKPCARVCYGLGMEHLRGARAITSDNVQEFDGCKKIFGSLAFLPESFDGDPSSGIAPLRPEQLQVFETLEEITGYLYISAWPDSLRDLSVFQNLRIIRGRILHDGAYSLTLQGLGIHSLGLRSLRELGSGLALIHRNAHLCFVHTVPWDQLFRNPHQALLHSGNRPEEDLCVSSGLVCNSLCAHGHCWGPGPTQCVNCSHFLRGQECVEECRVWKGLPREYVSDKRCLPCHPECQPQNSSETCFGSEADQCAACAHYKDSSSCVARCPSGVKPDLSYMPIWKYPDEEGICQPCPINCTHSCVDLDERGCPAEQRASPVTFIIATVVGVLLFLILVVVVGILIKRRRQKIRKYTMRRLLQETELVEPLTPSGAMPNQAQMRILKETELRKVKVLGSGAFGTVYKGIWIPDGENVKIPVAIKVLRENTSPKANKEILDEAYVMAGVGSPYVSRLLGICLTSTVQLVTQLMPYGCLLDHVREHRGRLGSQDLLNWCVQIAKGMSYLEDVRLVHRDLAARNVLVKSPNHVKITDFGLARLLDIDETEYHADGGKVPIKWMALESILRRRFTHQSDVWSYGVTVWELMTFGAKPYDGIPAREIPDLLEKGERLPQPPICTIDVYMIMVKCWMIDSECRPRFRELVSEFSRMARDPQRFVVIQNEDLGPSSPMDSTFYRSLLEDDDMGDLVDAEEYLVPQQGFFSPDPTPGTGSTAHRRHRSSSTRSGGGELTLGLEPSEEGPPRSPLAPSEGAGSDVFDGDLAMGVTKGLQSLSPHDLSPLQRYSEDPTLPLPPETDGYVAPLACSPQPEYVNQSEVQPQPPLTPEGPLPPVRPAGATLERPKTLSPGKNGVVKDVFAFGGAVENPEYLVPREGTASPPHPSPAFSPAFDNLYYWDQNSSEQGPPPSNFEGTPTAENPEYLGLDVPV
Description: (§1) A cell based assay utilizing CHO-K1 cells overexpressing human or rat HER receptors is used to determine activity of NRG4 compounds. CHO-K1 cells (ATCC) are grown in DMEM-F12 3:1 with 5% FBS with 20 mM HEPES, 40 μg/mL L-Proline, lx antibiotics and were split 1:5 every 2-3 days with TripLE Express (Gibco). Cells are transfected with plasmid DNA encoding HER receptors in pairs (hHER2-3, hHER2-4, rHER2-3 and rHER2-4) with Fugene 6 (Promega) according to the manufacturer's instructions. […] Transfected cells are selected with Puromycin (12 ug/ml) and Hygromycin (1 mg/ml) for 3-4 weeks and clonal lines are obtained by limited dilution cloning into 96 well plates. Clonal lines are selected by appropriate gene expression of HER2, HER3 or HER4 by Taqman method. Lines with appropriate receptor expression are confirmed by NRG1 induced phospho-ERK 1/2 responses. Clones are grown up, harvested, aliquoted into cryovials and then frozen under liquid nitrogen for long-term storage.
A phospho-ERK1/2 activity assay is utilized with CHO-K1 cells overexpressing human or rat HER receptors to determine potencies and selectivity of purified NRG4 compounds. CHO-K1 cell lines expressing the human or rat HER receptors are cultured with selection medium (DMEM-F12 3:1 with 5% FBS with 20 mM HEPES, 40 μg/mL L-Proline, 1× antibiotics, 12 μg/mL puromycin, 1 mg/mL Hygromycin B). On Day −1 (the day before phospho-ERK1/2 assay), cells are washed once with PBS, detached with enzyme free cell dissociation solution (GIBCO cat #13151-014), and resuspended in plating medium (DMEM-F12 3:1 with 20 mM HEPES, lx antibiotics, 0.2% FBS). Cells are plated in a 96-well Poly-D-Lysine coated plate (BD cat #354640) at 10,000 cells per 0.1 mL per well. Cells are cultured in a tissue culture incubator at 37° C. 5% CO2 overnight. On Day 1 (the day of pERK1/2 assay), plates are incubated at room temperature for 30 min. The culture media are removed followed by addition of 504, ligand at various concentrations diluted in PBS-20 mM HEPES-0.005% BSA. Native human NRG1 and NRG4 peptides are purchased from Reprokine (Tampa, Fla.). The stimulation time is 30 min (except for hHER2-4 1H6 line in which 15 min is used for stimulation). At the end of stimulation, ligands are removed and 704, Lysis buffer (made according to manufacturer's recipe, Perkin Elmer cat #ALSU-PERK-A10K) is added. Plates are incubated at room temperature for 10 min on plate shaker with 350 rpm agitation, then on ice for 1 hour without shaking. 304, of cell lysis is transferred to a 96-well white Optiplate (Perkin Elmer cat #6002290) for phospho-ERK1/2 assay. Briefly 7.5 μL acceptor beads are added to 30 μL lysis in Optiplate. The plate is covered with aluminum foil and incubated at room temperature for 1 hour on plate shaker with 350 rpm agitation. Then 7.5 μL donor beads are added and the plate is covered with aluminum foil and incubated at room temperature for 2 hours on plate shaker with 350 rpm agitation or at 4° C. for overnight (warm up plate at room temperature for 2 h before reading). Alpha signal data are obtained on an Envision instrument (Alpha Technology-compatible plate reader). Donor beads and acceptor beads are made according to assay protocol. The data shown are generated with either the AlphaScreen SureFire p-ERK1/2 (Thr202/Tyr204) assay kit (Cat #TGRES50k) or the AlphaLISA® SureFire® Ultra™ p-ERK 1/2 (Thr202/Tyr204) assay kit (Perkin Elmer cat #ALSU-PERK-A10K). The activity of the NRG1 peptide was similar in both types of assays. Raw data obtained from the Envision instrument is imported into GraphPad Prism software (version 7). The EC50 value is generated by a variable slope-four parameter dose response curve. The % of maximal NRG1 activity data are generated by expressing the average maximal raw data for the NRG4 compound over the average maximal raw data for the native human NRG1 per plate and multiplying by 100. Data are provided below in Tables 7-9. N values reflect number of independent assays run. […]

[2] = molecular target: T2, rat HER2/HER3 (Rattus norvegicus, UniProt Q62799); test: Rat HER2/HER3 phospho-ERK 1/2 assay, purified proteins, CHO-K1 cells; format: cell-based; details: phospho-ERK1/2
T2 construct: expressed in transfected cells
T2 sequence (Q62799 20-1339): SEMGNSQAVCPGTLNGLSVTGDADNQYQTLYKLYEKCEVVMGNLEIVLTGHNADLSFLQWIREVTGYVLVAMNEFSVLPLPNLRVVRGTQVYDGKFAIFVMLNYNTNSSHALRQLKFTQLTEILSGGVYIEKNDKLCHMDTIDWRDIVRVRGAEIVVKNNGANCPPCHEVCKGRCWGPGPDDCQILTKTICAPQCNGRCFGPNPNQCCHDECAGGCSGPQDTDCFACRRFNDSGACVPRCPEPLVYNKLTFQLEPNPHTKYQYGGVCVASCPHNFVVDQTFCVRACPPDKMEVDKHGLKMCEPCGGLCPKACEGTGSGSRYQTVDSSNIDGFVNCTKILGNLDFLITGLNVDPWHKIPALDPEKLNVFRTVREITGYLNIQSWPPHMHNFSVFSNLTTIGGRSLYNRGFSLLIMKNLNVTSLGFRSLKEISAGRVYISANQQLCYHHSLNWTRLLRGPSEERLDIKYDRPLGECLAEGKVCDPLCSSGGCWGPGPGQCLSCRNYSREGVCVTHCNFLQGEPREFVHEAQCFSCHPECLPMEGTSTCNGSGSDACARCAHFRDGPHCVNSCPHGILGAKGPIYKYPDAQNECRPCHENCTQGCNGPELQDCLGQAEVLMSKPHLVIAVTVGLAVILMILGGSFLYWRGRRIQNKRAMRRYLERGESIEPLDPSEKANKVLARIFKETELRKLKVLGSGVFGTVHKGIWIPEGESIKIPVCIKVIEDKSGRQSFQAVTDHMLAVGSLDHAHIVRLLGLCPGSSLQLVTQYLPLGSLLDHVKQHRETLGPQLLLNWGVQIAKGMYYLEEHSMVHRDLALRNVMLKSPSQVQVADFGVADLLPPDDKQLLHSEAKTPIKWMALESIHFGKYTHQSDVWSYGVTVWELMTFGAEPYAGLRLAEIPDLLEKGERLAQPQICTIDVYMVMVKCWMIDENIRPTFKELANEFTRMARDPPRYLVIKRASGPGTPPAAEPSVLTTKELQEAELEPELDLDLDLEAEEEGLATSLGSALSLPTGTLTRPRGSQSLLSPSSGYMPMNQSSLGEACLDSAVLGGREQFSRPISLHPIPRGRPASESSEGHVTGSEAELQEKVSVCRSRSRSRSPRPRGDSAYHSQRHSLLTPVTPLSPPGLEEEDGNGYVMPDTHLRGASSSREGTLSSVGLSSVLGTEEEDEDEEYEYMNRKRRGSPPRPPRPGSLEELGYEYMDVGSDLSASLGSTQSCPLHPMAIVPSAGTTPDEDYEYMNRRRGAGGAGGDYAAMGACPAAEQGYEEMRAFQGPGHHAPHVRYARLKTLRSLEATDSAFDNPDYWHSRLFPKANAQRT
T2 sequence (P06494 23-1257 partner): as the sequence (P06494 23-1257 partner) above
Description: as §1
A phospho-ERK1/2 activity assay is utilized with CHO-K1 cells overexpressing human or rat HER receptors to determine potencies and selectivity of purified NRG4 compounds. CHO-K1 cell lines expressing the human or rat HER receptors are cultured with selection medium (DMEM-F12 3:1 with 5% FBS with 20 mM HEPES, 40 μg/mL L-Proline, 1× antibiotics, 12 μg/mL puromycin, 1 mg/mL Hygromycin B). On Day −1 (the day before phospho-ERK1/2 assay), cells are washed once with PBS, detached with enzyme free cell dissociation solution (GIBCO cat #13151-014), and resuspended in plating medium (DMEM-F12 3:1 with 20 mM HEPES, lx antibiotics, 0.2% FBS). Cells are plated in a 96-well Poly-D-Lysine coated plate (BD cat #354640) at 10,000 cells per 0.1 mL per well. […] Then 7.5 μL donor beads are added and the plate is covered with aluminum foil and incubated at room temperature for 2 hours on plate shaker with 350 rpm agitation or at 4° C. for overnight (warm up plate at room temperature for 2 h before reading). Alpha signal data are obtained on an Envision instrument (Alpha Technology-compatible plate reader). […]

[3] = tested on: rats; test: Toxicology study in rats, cardiac tissue inspection; details: single SC injection of 0.3 mg/kg
[4] = Plasma pharmacokinetics in rats (toxicology studies); details: rat, in vivo, sc, 0.3 mg/kg
Description: Example 11 is administered in a single 3 mg/kg dose to male and female monkeys by SC bolus injection.

[5] = tested on: rat model of heart failure with reduced ejection fraction (HFrEF); test: Rat MI model, captopril, Example 10 or combination, echocardiography; format: in vivo; set-up: Left Ventricle Diameter (end diastole): unit not given here
Description: A nonclinical efficacy pharmacology study is conducted in a rat model of heart failure with reduced ejection fraction (HFrEF) to evaluate cardiac function and structure changes after captopril treatment, Example 10 treatment or combination treatment.
The left coronary artery is permanently ligated. All rats are individually housed in a temperature and humidity controlled room and maintained on a 12 hour light/dark cycle. Two to three weeks after surgery, rats undergo transthoracic echocardiography for determination of ejection fraction (EF %) and left ventricle dimensions (LVD) using a Vevo 2100 ultrasound system. Rats are randomized across treatment groups according to EF % and LVD.
Measurements of EF % and LVD are expressed as mean values±standard error (SE). Statistical analysis is performed with JMP® 13 software (SAS Institute, Inc.; Cary, N.C.) and Dunnett's Test is used for statistical comparisons across treatment groups. Statistical significance is accepted at P<0.05.
Three weeks after MI surgery, animals are randomized to 2 treatment groups (Placebo or captopril, 2 g/L in drinking water, ad lib) according to EF % and LVD. Three weeks and four weeks after dosing starts, cardiac function (EF %) and structure (LVD) are evaluated by transthoracic echocardiography. Animals are further randomized to additional groups based on cardiac function (EF %) and structure (LVD) to the following groups: Placebo, Example 10, captopril and Example 10+captopril. Animals in the Example 10 groups receive a single injection on week 4 after the 2nd randomization. Cardiac function (EF %) and structure (LVD) are evaluated on week 5 and 6.

[6] = Week 4 (2nd randomization; before the single injection of Example 10)
[7] = Week 5 (single injection of Example 10 on week 4; captopril 2 g/L in drinking water)
[8] = Week 6 (single injection of Example 10 on week 4; captopril 2 g/L in drinking water)

Molecule | % Maximal NRG1 activity [1] | EC50 [1] | EC50 [2] | inspections of tissue (cardiac toxicity) [3] | duration of detectable plasma concentrations [4] | Ejection Fraction [5, 6] | Left Ventricle Diameter (end diastole) [5, 6] | Ejection Fraction [5, 7] | Left Ventricle Diameter (end diastole) [5, 7] | Ejection Fraction [5, 8] | Left Ventricle Diameter (end diastole) [5, 8]
WT NRG1: wild type human NRG1; native peptide purchased from Reprokine in Tables 7-9; comparator in the screening assays of Tables 4 and 6 | 100% | 0.29 ± 0.05 nM | 32 ± 14 nM |  |  |  |  |  |  |  | 
Example 10: NRG4 D1G/V22Q/E44K, (GGGGS)3 linker, SEQ ID NO: 19, fused to IgG Fc dimer SEQ ID NO: 6 and 7 (protein) chain 1: GGGGSGGGGSGGGGSGHEEPCGPSHKSFCLNGGLCYQIPTIPSPFCRCVENYTGARCEKVFL chain 2: ECPPCPAPPVAGPSVFLFPPKPKDTLMISRTPEVTCVVVDVSHEDPEVQFNWYVDGVEVHNAKTKPREEQFNSTFRVVSVLTVVHQDWLNGKEYKCKVSNKGLPAPIEKTISKTKGQPREPQVYTLPPSREEMTKNQVSLWCLVKGFYPSDIAVEWESNGQPENNYKTTPPVLDSDGSFFLYSKLTVDKSRWQQGNVFSCSVMHEALHNHYTQKSLSLSPG chain 3: ECPPCPAPPVAGPSVFLFPPKPKDTLMISRTPEVTCVVVDVSHEDPEVQFNWYVDGVEVHNAKTKPREEQFNSTFRVVSVLTVVHQDWLNGKEYKCKVSNKGLPAPIEKTISKTKGQPREPQVYTLPPSREEMTKNQVSLSCAVKGFYPSDIAVEWESNGQPENNYKTTPPVLDSDGSFFLVSKLTVDKSRWQQGNVFSCSVMHEALHNHYTQKSLSLSPG | 88 ± 7 (N = 2) % | 0.12 ± 0.04 nM | > 100 nM | cardiac degeneration and necrosis | > 168 h | 33.3% | 9.33 | 46.5* % | 9.35 | 46.0* % | 9.01
